In patent publication US20230416305A1 (published 2023):
Bridges are numbered along the chain shown (N, C = ends). Where no end group is shown, it is not given here. [ ]: non-standard residue; d: D form. S5 = C=CCCC[C@](C)(N)C(=O)O

T1: ANK domain of Notch1 intracellular segment N1ICD (UniProt P46531 1872-2126)
T1 chain: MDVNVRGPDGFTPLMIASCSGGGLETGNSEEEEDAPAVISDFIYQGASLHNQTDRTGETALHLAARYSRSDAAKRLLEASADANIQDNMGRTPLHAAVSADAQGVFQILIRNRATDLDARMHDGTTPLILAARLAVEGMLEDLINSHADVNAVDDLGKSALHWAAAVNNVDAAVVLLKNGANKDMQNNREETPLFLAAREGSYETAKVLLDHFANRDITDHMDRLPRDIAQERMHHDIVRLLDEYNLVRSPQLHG

T2: ANK1 (α-helical region of the ANK domain of N1ICD) (UniProt P46531 1927-1956)
T2 chain: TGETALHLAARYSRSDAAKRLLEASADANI


Columns and labels:
[1] = biological target: T1, ANK domain of Notch1 intracellular …; assay: SPR
ANK2 = assay: SPR
ANK3 = assay: SPR
ANK6 = assay: SPR
ANK4 = assay: SPR
ANK5 = assay: SPR
[2] = biological target: T1, ANK domain of Notch1 intracellular …; assay: SPR; FIG. 1C
[3] = biological target: T1, ANK domain of Notch1 intracellular …; assay: SPR; FIG. 1D
[4] = biological target: T1, ANK domain of Notch1 intracellular …; assay: SPR
[5] = biological target: T2, ANK1 (α-helical region of the ANK …); assay: SPR

| Binder | Kd [1] [nM] | other results |
| --- | --- | --- |
| YAKAIFYQLLSKQL [mAH2-4] | 74.5 |  |
| YAKRIFYQLLSKEL [AH2] |  | Kd (ANK2): 23300 nM; Kd (ANK3): 85800 nM; Kd (ANK6): 64200 nM; Kd (ANK4): 66100 nM; Kd (ANK5): 42800 nM |
| YAKRIFYQLLSKQL [modified AH2 (mAH2), modified α-helice 2] |  | Kd [2]: 60.4 nM; Kd [3]: 45.2 nM |
| Y[S5]KRI[S5]YQLLSKQL (staple 2-6) [SAH-mAH2-2] | 97.7 |  |
| YAKRI[S5]YQLLSK[S5]L (staple 6-13) [SAH-mAH2-5 (stapled α-helix-modified α-helix 2-5)] | 0.898 |  |
| [S5]AKRIFY[S5]LLSKQL (staple 1-8) [SAH-mAH2-4] | 25.8 |  |
| YAARIFYQLLSKQL [mAH2-3] | 51.1 |  |
| YAKRAFYQLLSKQL [mAH2-5] | 57.5 |  |
| YAKRIFYALLSKQL [mAH2-8] | 87.4 |  |
| YAKRIFYQLLSKEL [AH2 (α-helix 2 of N1DARP)] |  | Kd [4]: 60.4 nM; Kd [5]: 4340 nM; Kd [3]: 60.4 nM |
| AAKRIFYQLLSKQL [mAH2-1] | 96.1 |  |
| [S5]AKR[S5]FYQLLSKQL (staple 1-5) [SAH-mAH2-1] | 134 |  |
| YAKRIAYQLLSKQL [mAH2-6] | 63.6 |  |
| LLEKKRQY [AH1] |  | Kd [4]: 213 nM |

The next lines start with results.

| Kd [1] [nM] | Binder | other results |
| --- | --- | --- |
| 78.2 | YAKRIFYQLLSAQL [mAH2-12] |  |
| 99 | YAKRIFYQLLSKAL [mAH2-13] |  |
| 83.9 | YAKRIFYQLLAKQL [mAH2-11] |  |
| 286 | YAKRIFYQALSKQL [mAH2-9] |  |
| 55.5 | YAKRIFYQLASKQL [mAH2-10] |  |
| 5980 | YAKRIFYQLLSKQA [mAH2-14] |  |
